Measured values reported in the FLAb antibody collection (doi:10.7554/elife.23156).

B1: scFv; the commonest letter at each place (parent)
chain 1: EVKLDETGGGLVQPGRPMKLSCVASGFTFSDYWMNWVRQSPEKGLEWVAQIRNKPYNYETYYSDSVKGRFTISRDDSKSSVYLQMNNLRVEDMGIYYCTGSYYGMDYWGQGTSVTVS
chain 2: DVVMTQTPLSLPVSLGDQASISCRSSQSLVHSNGNTYLRWYLQKPGQSPKVLIYKVSNRFSGVPDRFSGSGSGTDFTLKISRVEAEDLGVYFCSQSTHVPWTFGGGTKLEIK

Key:
fluorescein = variants of: B1; experiment: Kd (Tite-Seq); details: with fluorescein; format: scFv 4-4-20, heavy + light
[1] = variants of: B1; experiment: yeast surface expression (ratio to wild type); higher = more expressed; details: format: scFv 4-4-20, heavy + light

Kd (fluorescein)	Variant	yeast surface expression [1]
≥ 10 µM	chain 1 Y103W G109S	0.653
≥ 10 µM	chain 1 G100R W108C	0.246
≥ 10 µM	chain 1 T28G F29R Y32K	0.507
≥ 10 µM	chain 1 Y103K G104R W108V	0.32
0.00325 µM	chain 1 D31N V37I	0.855
≥ 10 µM	chain 1 S101R W108H	0.261
≥ 10 µM	chain 1 G100Y Y107K	0.555
≥ 10 µM	chain 1 G100Y Y107Q	0.595
≥ 10 µM	chain 1 S30V D31V W36E	1.33
≥ 10 µM	chain 1 Y32T V37A	0.65
≥ 10 µM	chain 1 M105D D106G	0.347
0.000454 µM	chain 1 S30T V37C	0.826
0.02 µM	chain 1 W108I G109F	0.186
7.33 µM	chain 1 T28G Y32K	0.795
≥ 10 µM	chain 1 S30F W36D	0.448
≥ 10 µM	chain 1 S101Q G104V	0.296
0.11 µM	chain 1 S30R M34S	0.717
6.61 µM	chain 1 D31S Y32C	0.648
0.02 µM	chain 1 F29C V37M	0.763
≥ 10 µM	chain 1 G100T S101N G104K	0.565
0.00894 µM	chain 1 Y102T	0.932
0.004 µM	chain 1 Y102H	1.17
0.0107 µM	chain 1 Y102V	0.936
≥ 10 µM	chain 1 F29Y D31P	0.888

Kd (fluorescein)	Variant	yeast surface expression [1]
≥ 10 µM	chain 1 F29Q Y32E W33S	0.761
4.25 µM	chain 1 M105V	0.993
0.0423 µM	chain 1 M105Q	1.23
≥ 10 µM	chain 1 S101T Y103P	0.643
0.0372 µM	chain 1 Y107M	0.921
0.228 µM	chain 1 F29Y V37P	2.26
≥ 10 µM	chain 1 Y102K G109I	0.226
≥ 10 µM	chain 1 Y32G M34C	0.676
≥ 10 µM	chain 1 F29N V37G	0.135
0.000351 µM	chain 1 S30G D31H S101A Y102S D106E W108L	0.844
≥ 10 µM	chain 1 D106W Y107L	0.308
≥ 10 µM	chain 1 S101D G104D Y107K	0.674
0.00265 µM	chain 1 T28S S30R	0.787
≥ 10 µM	chain 1 Y102L M105I	1.57
≥ 10 µM	chain 1 G100K G109V	0.188
≥ 10 µM	chain 1 D106T G109M	0.285
≥ 10 µM	chain 1 Y103I W108S	0.397
≥ 10 µM	chain 1 G100S Y103P	0.689
≥ 10 µM	chain 1 G100R G104Q	0.217
≥ 10 µM	chain 1 Y102Q W108Q	0.508
≥ 10 µM	chain 1 G100N Y102Q	0.746
≥ 10 µM	chain 1 G100E Y102G	0.488
≥ 10 µM	chain 1 W33S	0.845
≥ 10 µM	chain 1 W33Y	0.976

Kd (fluorescein)	Variant	yeast surface expression [1]
≥ 10 µM	chain 1 Y107P G109N	0.355
0.0302 µM	chain 1 D31P N35F	0.944
≥ 10 µM	chain 1 G104H D106H	0.586
≥ 10 µM	chain 1 S30T W33V	0.899
0.000504 µM	chain 1 T28K F29Y	0.984
≥ 10 µM	chain 1 W33A V37W	0.625
≥ 10 µM	chain 1 D106C W108K	0.314
≥ 10 µM	chain 1 Y103E M105I	0.9
≥ 10 µM	chain 1 F29D W33L	0.795
7.72 µM	chain 1 Y32Q W33V N35E	1.51
0.0189 µM	chain 1 T28G	0.994
≥ 10 µM	chain 1 S101M Y103D	0.917
≥ 10 µM	chain 1 G100D G109N	0.118
≥ 10 µM	chain 1 Y102G G109K	0.336
≥ 10 µM	chain 1 M34C W36L	0.524
≥ 10 µM	chain 1 Y102H Y107K	1.05
≥ 10 µM	chain 1 S101T M105T	0.928
≥ 10 µM	chain 1 D106H Y107A	0.455
0.02 µM	chain 1 Y103C M105L	0.641
≥ 10 µM	chain 1 G104D G109V	0.266
≥ 10 µM	chain 1 F29L S30C N35A	0.89
≥ 10 µM	chain 1 Y32A M34S	0.769
≥ 10 µM	chain 1 Y103L Y107D	0.471
≥ 10 µM	chain 1 W33S M34T	0.463

Kd (fluorescein)	Variant	yeast surface expression [1]
≥ 10 µM	chain 1 F29G W36M	0.478
0.0318 µM	chain 1 Y102R M105N	0.764
≥ 10 µM	chain 1 G100L D106L	0.395
≥ 10 µM	chain 1 G100R G109C	0.173
≥ 10 µM	chain 1 G100N D106Y	0.146
≥ 10 µM	chain 1 D31E V37L	0.735
≥ 10 µM	chain 1 G104W M105R	0.484
≥ 10 µM	chain 1 T28Y W36Q	0.297
≥ 10 µM	chain 1 T28Y F29T W33T	0.745
0.00204 µM	chain 1 Y103M Y107W	0.871
≥ 10 µM	chain 1 Y102C D106L	0.306
≥ 10 µM	chain 1 Y103K D106M	0.716
≥ 10 µM	chain 1 G100V M105S	0.855
≥ 10 µM	chain 1 G100S M105Q D106N	0.522
≥ 10 µM	chain 1 G100V	0.97
≥ 10 µM	chain 1 G104S	0.799
≥ 10 µM	chain 1 S101T Y107E	0.565
≥ 10 µM	chain 1 F29A V37P	0.153
≥ 10 µM	chain 1 S101C Y107G	0.245
7.72 µM	chain 1 Y32V V37K	0.425
≥ 10 µM	chain 1 F29T S30D M34V	0.837
0.00606 µM	chain 1 T28W S30F	0.69
0.0269 µM	chain 1 T28S F29S	1.17
≥ 10 µM	chain 1 G109C	0.39

Kd (fluorescein)	Variant	yeast surface expression [1]
0.327 µM	chain 1 F29S N35Y	1.05
≥ 10 µM	chain 1 W33K M34T	0.893
≥ 10 µM	chain 1 S101M Y107H	0.483
≥ 10 µM	chain 1 D106G Y107W	0.338
≥ 10 µM	chain 1 D106G Y107S	0.474
0.216 µM	chain 1 F29Y S30A D31M	0.826
≥ 10 µM	chain 1 S101A Y107E W108G	0.353
≥ 10 µM	chain 1 W36C	0.561
8.34 µM	chain 1 W36R	0.957
≥ 10 µM	chain 1 S30D V37P	0.55
≥ 10 µM	chain 1 T28R W33G	0.684
≥ 10 µM	chain 1 T28A N35Y W36V	0.297
≥ 10 µM	chain 1 S30R Y32Q	1.13
5.24 µM	chain 1 F29N	1.04
1.47 µM	chain 1 W33L V37D	0.591
≥ 10 µM	chain 1 Y107G G109V	0.273
≥ 10 µM	chain 1 F29I W33A W36Y	0.454
0.000743 µM	chain 1 S30T	1.07
≥ 10 µM	chain 1 S101Q Y103L D106G	0.41
≥ 10 µM	chain 1 F29N M34A	0.918
